These are literature values, as cited in article PMC6482830.

In general, Kd refers to the equilibrium constant for the complex coming apart.

For the data set, the target named is eIF4E (Homo sapiens) (UniProt P06730). Briefly: ITC.
Sequence of UniProt P06730 (P06730 2-217): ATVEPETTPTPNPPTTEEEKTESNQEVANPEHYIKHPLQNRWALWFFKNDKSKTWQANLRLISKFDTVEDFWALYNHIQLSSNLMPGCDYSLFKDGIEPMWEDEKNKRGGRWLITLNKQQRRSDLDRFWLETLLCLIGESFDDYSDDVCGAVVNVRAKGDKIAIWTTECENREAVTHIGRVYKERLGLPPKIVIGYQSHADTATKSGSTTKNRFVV

For 4E-BP1 peptide (from UniProt Q13541), the Kd was 50 nM.
